# T1: SMAP1-stromal membrane-associated protein 1 (SMAP1) (human, UniProt Q8IYB5 1-467, limits assumed)
# T1 sequence (looked up): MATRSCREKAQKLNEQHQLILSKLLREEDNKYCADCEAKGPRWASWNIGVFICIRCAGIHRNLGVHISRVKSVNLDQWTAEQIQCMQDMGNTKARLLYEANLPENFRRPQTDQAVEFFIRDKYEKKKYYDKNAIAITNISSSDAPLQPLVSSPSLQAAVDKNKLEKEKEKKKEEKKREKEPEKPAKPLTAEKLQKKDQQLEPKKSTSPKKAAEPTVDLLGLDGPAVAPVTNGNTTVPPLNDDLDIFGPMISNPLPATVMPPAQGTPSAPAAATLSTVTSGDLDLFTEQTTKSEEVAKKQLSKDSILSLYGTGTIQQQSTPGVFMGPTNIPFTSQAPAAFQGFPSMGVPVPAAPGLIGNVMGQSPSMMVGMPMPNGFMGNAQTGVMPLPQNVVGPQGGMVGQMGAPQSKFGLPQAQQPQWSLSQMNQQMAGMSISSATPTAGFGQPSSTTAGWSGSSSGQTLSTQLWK
# T2: MAGEH1-melanoma antigen family H, 1 (MAGEH1) (human, UniProt Q9H213 1-219)
# T2 sequence (looked up): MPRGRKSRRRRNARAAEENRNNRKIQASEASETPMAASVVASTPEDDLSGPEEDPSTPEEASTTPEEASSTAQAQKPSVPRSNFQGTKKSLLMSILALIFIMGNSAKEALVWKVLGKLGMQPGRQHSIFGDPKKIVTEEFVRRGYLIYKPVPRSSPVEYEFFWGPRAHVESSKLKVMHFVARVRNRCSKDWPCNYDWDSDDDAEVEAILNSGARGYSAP
# T3: GHRL-ghrelin/obestatin preprohormone (GHRL) (human, UniProt Q9UBU3 1-117, limits assumed)
# T3 sequence (looked up): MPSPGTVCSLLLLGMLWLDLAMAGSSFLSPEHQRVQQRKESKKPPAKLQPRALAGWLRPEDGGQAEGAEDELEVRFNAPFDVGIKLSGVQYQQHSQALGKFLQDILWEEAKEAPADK
# T4: SCGB1A1-secretoglobin, family 1A, member 1 (uteroglobin) (SCGB1A1) (human, UniProt P11684 22-91, limits assumed)
# T4 sequence (looked up): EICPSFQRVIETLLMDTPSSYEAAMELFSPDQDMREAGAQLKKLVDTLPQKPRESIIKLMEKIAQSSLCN
# T5: LYPLAL1-lysophospholipase-like 1 (LYPLAL1) (human, UniProt Q5VWZ2 1-237)
# T5 sequence (looked up): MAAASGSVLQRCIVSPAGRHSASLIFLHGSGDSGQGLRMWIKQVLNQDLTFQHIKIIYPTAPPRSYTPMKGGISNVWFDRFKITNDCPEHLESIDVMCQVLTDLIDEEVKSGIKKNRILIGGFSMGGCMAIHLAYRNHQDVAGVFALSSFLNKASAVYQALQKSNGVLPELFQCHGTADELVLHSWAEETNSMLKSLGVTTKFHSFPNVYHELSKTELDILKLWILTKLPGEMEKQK
# T6: RAB7B-RAB7B, member RAS oncogene family (RAB7B) (human, UniProt Q96AH8 1-199)
# T6 sequence (looked up): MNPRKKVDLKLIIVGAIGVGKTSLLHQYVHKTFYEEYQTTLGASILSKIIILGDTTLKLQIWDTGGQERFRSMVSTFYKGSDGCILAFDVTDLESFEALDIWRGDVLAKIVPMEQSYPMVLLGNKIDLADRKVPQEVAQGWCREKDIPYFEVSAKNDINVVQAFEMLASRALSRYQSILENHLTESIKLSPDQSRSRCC
# T7: SNFT-Jun dimerization protein p21SNFT (SNFT) (human, UniProt Q9NR55 1-127)
# T7 sequence (looked up): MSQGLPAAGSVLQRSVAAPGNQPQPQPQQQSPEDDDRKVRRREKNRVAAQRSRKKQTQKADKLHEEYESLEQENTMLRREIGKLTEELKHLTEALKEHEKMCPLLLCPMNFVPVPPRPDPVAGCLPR
# T8: GAL-galanin prepropeptide (GAL) (human, UniProt P22466 1-123, limits assumed)
# T8 sequence (looked up): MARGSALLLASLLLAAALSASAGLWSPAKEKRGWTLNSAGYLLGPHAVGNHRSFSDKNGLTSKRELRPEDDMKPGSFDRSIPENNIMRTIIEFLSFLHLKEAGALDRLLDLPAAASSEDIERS
# What was measured:
# [1] = molecular target: cDNA clone IMAGE:4623222 product, G9a-methylated (human); assay: ProtoArray methylated with G9a SET domain
# Experimental: (§1) Briefly, a ProtoArray (Invitrogen, version 5.0) was incubated overnight with 50 μg of GST or recombinant GSTtagged G9a SET domain and the cofactor SAM.
# (§2) Arrays were analyzed using GenePix Pro 6.1 software (Molecular Devices) and feature values were assigned to proteins using the array list provided by Invitrogen. We designated the following criteria for “hits”: GST array signal-to-noise ratio (SNR) less than or equal to 1.5, G9a array SNR greater than or equal to 10, and a difference between the G9a array SNR and the GST array SNR of greater than or equal to 12. Hits were individually visually validated. Proteins were removed from the list of potential substrates if irregular array features appeared to interfere with the array spots or SNR calculations.
# (§3) Protein arrays bearing almost 9500 recombinant human proteins were methylated using GST-tagged recombinant G9a SET domain or GST alone as a control as shown in FIG. 4. […] Results were filtered for proteins scoring a GST array signal-to-noise ratio (SNR) less than or equal to 1.5, a G9a array SNR greater to or equal to 10, and a difference between the G9a and GST SNRs of greater than or equal to 12. Subsequent proteins were individually inspected for irregular array features.
# [2] = molecular target: LOC145788, G9a-methylated (human); assay: ProtoArray methylated with G9a SET domain
# Experimental: as §1, §2, §3
# [3] = molecular target: LOC400500, G9a-methylated (human); assay: ProtoArray methylated with G9a SET domain
# Experimental: as §1, §2, §3
# [4] = molecular target: MGC4473, G9a-methylated (human); assay: ProtoArray methylated with G9a SET domain
# Experimental: as §1, §2, §3
# [5] = molecular target: T1, SMAP1-stromal membrane-associated …; assay: ProtoArray, GST-treated control array;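 for GST Average SNR: human protein microarray (about 9500 recombinant proteins) incubated overnight with GST alone plus SAM cofactor as the negative control for G9a SET domain methylation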
# [6] = molecular target: TMEM97-transmembrane protein 97 (TMEM97) (human, UniProt Q5BJF2 1-176); assay: ProtoArray, GST-treated control array;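 note: human protein microarray (about 9500 recombinant proteins) incubated overnight with GST alone plus SAM cofactor as the negative control for G9a SET domain methylation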
# Sequence of TMEM97-transmembrane protein 97 (TMEM97) (Q5BJF2 whole entry, the tested form may be a part): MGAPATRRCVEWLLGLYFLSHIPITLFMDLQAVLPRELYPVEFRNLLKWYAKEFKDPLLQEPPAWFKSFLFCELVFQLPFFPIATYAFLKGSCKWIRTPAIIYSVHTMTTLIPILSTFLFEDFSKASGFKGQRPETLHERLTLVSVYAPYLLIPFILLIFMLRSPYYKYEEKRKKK
# [7] = molecular target: T2, MAGEH1-melanoma antigen family H, 1 …; assay: ProtoArray, GST-treated control array;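 for GST Average SNR: human protein microarray (about 9500 recombinant proteins) incubated overnight with GST alone plus SAM cofactor as the negative control for G9a SET domain methylation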
# [8] = molecular target: T3, GHRL-ghrelin/obestatin preprohormone …; assay: ProtoArray, GST-treated control array;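 for GST Average SNR: human protein microarray (about 9500 recombinant proteins) incubated overnight with GST alone plus SAM cofactor as the negative control for G9a SET domain methylation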
# [9] = molecular target: T4, SCGB1A1-secretoglobin, family 1A, …; assay: ProtoArray, GST-treated control array
# [10] = molecular target: T5, LYPLAL1-lysophospholipase-like 1 …; assay: ProtoArray, GST-treated control array
# [11] = molecular target: T6, RAB7B-RAB7B, member RAS oncogene family …; assay: ProtoArray, GST-treated control array
# [12] = molecular target: T7, SNFT-Jun dimerization protein p21SNFT …; assay: ProtoArray, GST-treated control array
# [13] = molecular target: FTL-ferritin, light polypeptide (FTL) (human, UniProt P02792 1-175); assay: ProtoArray, GST-treated control array
# Sequence of FTL-ferritin, light polypeptide (FTL) (P02792 whole entry): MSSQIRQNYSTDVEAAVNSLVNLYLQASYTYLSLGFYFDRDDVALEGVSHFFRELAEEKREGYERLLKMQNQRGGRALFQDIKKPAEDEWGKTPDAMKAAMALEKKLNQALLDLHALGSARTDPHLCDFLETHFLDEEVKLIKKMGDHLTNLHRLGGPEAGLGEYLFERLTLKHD
# [14] = molecular target: T8, GAL-galanin prepropeptide (GAL); assay: ProtoArray, GST-treated control array
# Experimental: as §1, §2
# [15] = molecular target: T3, GHRL-ghrelin/obestatin preprohormone …; assay: ProtoArray, GST-treated control array; remark: listed apart in the source
# Experimental: as §1, §2
binder,measurement,setting,value
"3× Flag-3×MBT (designed binder, also called Flag-tagged 3×MBT; 3xFlag-3xMBT; not shown: made by PreScission cleavage of GST-3× Flag-3×MBT) EEWSSSQPATGEKKECWSWESYLEEQKAITAPVSLFQDSQAVTHNKNGFKLGMKLEGIDPQHPSMYFILTVAEVCGYRLRLHFDGYSECHDFWVNANSPDIHPAGWFEKTGHKLQPPKGYKEEEFSWSQYLRSTRAQAAPKHLFVSQSHSPPPLGFQVGMKLEAVDRMNPSLVCVASVTDVVDSRFLVHFDNWDDTYDYWCDPSSPYIHPVGWCQKQGKPLTPPQDYPDPDNFCWEKYLEETGASAVPTWAFKVRPPHSFLVNMKLEAVDRRNPALIRVASVEDVEDHRIKIHFDGWSHGYDFWIDADHPDIHPAGWCSKTGHPLQPPLGPREPSSASPGG",G9a Average SNR,[1],18.8
same,G9a Average SNR,[2],14.1
same,G9a Average SNR,[3],29
same,G9a Average SNR,[4],21.7
same,GST Average SNR,[5],1.37
same,GST Average SNR,[6],-1.53
same,GST Average SNR,[7],1.11
same,GST Average SNR,[8],0.402
same,GST Average SNR,[9],1.16
same,GST Average SNR,[10],0.066
same,GST Average SNR,[11],-0.309
same,GST Average SNR,[12],1.05
same,GST Average SNR,[13],0.717
same,binding result,[14],no binding (tested: GST array SNR <= 1.5)
same,binding result,[15],no binding (tested: GST array SNR <= 1.5)
